This note sets out measurements from patent publication US20170037440A1 (MEDIZINISCHE HOCHSCHULE HANNOVER, published 2017).

This series deals with the molecule itself. Description: analytical size exclusion chromatography, self-association.

B1: Δ69-CsaBco-His6 (enzyme)
chain: MLIPINFFNFEYIVKKLNNQNAIGVYILPSNLTLKPALCILESHKEDFLNKFLLTISSENLKLQYKFNGQIKNPKSVNEIWTDLFSIAHVDMKLSTDRTLSSSISQFWFRLEFCKEDKDFILFPTANRYSRKLWKHSIKNNQLFKEGIRNYSEISSLPYEEDHNFDIDLVFTWVNSEDKNWQELYKKYKPDFNSDATSTSRFLSRDELKFALRSWEMNGSFIRKIFIVSNCAPPAWLDLNNPKIQWVYHEEIMPQSALPTFSSHAIETSLHHIPGISNYFIYSNDDFLLTKPLNKDNFFYSNGIAKLRLEAWGNVNGECTEGEPDYLNGARNANTLLEKEFKKFTTKLHTHSPQSMRTDILFEMEKKYPEEFNRTLHNKFRSLDDIAVTGYLYHHYALLSGRALQSSDKTELVQQNHDFKKKLNNVVTLTKERNFDKLPLSVCINDGADSHLNEEWNVQVIKFLETLFPLPSSFEKLEHHHHHH
notes: also called ΔN69-CsaB; dN69-CsaB
With B1, the binding result is reported as “binds”.
